B1: X-linked retinitis pigmentosa GTPase regulator-interacting protein 1 (Homo sapiens), Q96KN7 (parent)
chain: MSHLVDPTSGDLPVRDIDAIPLVLPASKGKNMKTQPPLSRMNREELEDSFFRLREDHMLVKELSWKQQDEIKRLRTTLLRLTAAGRDLRVAEEAAPLSETARRGQKAGWRQRLSMHQRPQMHRLQGHFHCVGPASPRRAQPRVQVGHRQLHTAGAPVPEKPKRGPRDRLSYTAPPSFKEHATNENRGEVASKPSELVSGSNSIISFSSVISMAKPIGLCMPNSAHIMASNTMQVEEPPKSPEKMWPKDENFEQRSSLECAQKAAELRASIKEKVELIRLKKLLHERNASLVMTKAQLTEVQEAYETLLQKNQGILSAAHEALLKQVNELRAELKEESKKAVSLKSQLEDVSILQMTLKEFQERVEDLEKERKLLNDNYDKLLESMLDSSDSSSQPHWSNELIAEQLQQQVSQLQDQLDAELEDKRKVLLELSREKAQNEDLKLEVTNILQKHKQEVELLQNAATISQPPDRQSEPATHPAVLQENTQIEPSEPKNQEEKKLSQVLNELQVSHAETTLELEKTRDMLILQRKINVCYQEELEAMMTKADNDNRDHKEKLERLTRLLDLKNNRIKQLEGILRSHDLPTSEQLKDVAYGTRPLSLCLETLPAHGDEDKVDISLLHQGENLFELHIHQAFLTSAALAQAGDTQPTTFCTYSFYDFETHCTPLSVGPQPLYDFTSQYVMETDSLFLHYLQEASARLDIHQAMASEHSTLAAGWICFDRVLETVEKVHGLATLIGAGGEEFGVLEYWMRLRFPIKPSLQACNKRKKAQVYLSTDVLGGRKAQEEEFRSESWEPQNELWIEITKCCGLRSRWLGTQPSPYAVYRFFTFSDHDTAIIPASNNPYFRDQARFPVLVTSDLDHYLRREALSIHVFDDEDLEPGSYLGRARVPLLPLAKNESIKGDFNLTDPAEKPNGSIQVQLDWKFPYIPPESFLKPEAQTKGKDTKDSSKISSEEEKASFPSQDQMASPEVPIEAGQYRSKRKPPHGGERKEKEHQVVSYSRRKHGKRIGVQGKNRMEYLSLNILNGNTPEQVNYTEWKFSETNSFIGDGFKNQHEEEEMTLSHSALKQKEPLHPVNDKESSEQGSEVSEAQTTDSDDVIVPPMSQKYPKADSEKMCIEIVSLAFYPEAEVMSDENIKQVYVEYKFYDLPLSETETPVSLRKPRAGEEIHFHFSKVIDLDPQEQQGRRRFLFDMLNGQDPDQGHLKFTVVSDPLDEEKKECEEVGYAYLQLWQILESGRDILEQELDIVSPEDLATPIGRLKVSLQAAAVLHAIYKEMTEDLFS
partner: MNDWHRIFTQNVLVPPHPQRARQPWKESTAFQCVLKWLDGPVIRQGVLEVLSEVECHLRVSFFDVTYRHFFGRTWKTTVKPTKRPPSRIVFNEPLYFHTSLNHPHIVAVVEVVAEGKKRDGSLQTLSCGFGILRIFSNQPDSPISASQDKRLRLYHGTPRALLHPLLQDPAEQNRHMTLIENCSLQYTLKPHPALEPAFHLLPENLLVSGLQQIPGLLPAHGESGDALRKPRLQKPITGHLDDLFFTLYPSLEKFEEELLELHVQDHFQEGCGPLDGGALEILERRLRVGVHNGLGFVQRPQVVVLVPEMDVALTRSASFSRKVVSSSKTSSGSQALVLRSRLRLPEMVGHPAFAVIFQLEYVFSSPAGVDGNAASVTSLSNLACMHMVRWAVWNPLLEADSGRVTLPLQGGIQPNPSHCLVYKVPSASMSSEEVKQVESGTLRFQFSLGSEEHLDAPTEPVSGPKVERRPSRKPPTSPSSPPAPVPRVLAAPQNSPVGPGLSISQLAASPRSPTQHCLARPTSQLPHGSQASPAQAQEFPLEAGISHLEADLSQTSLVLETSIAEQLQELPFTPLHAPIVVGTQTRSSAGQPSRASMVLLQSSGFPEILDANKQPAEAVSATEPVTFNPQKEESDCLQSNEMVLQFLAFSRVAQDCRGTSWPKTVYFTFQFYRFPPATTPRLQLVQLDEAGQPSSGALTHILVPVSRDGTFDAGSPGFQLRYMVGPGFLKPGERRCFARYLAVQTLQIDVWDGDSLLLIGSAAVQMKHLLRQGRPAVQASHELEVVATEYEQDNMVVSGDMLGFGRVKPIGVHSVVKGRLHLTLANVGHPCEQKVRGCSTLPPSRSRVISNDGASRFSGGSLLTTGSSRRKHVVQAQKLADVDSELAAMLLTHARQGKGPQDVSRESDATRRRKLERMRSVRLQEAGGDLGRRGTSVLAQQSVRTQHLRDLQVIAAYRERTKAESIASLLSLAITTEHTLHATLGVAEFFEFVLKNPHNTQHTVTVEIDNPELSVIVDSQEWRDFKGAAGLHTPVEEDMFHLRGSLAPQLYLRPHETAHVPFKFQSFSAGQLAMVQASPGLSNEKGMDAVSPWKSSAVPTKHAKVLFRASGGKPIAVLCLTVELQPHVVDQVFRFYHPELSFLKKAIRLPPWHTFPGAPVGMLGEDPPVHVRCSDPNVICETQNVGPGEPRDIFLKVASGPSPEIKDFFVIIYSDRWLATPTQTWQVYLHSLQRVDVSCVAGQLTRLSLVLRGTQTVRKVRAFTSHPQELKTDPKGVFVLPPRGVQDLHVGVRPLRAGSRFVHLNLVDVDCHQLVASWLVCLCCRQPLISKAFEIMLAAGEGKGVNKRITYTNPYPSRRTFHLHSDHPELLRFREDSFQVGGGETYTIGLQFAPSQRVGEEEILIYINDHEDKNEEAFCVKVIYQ

Variants of: B1
Details: with nphp4_human NPHP4, O75161

Row | effect of a mutation on the interaction | Variant
1 | decreasing interaction strength | I838V
2 | decreasing interaction strength | A837G
3 | increasing interaction strength | R812H

Second part, the variant before the results:

Row | Variant | effect of a mutation on the interaction
4 | R598Q | decreasing interaction strength
5 | T806I | decreasing interaction strength
6 | Q589H | with no effect
7 | A764V | with no effect
8 | A635G | decreasing interaction strength

Variants of: B1
Details: with nphp4_human NPHP4, O75161
Remark: another data set of the same source

Row | effect of a mutation on the interaction | Variant
9 | disrupting interaction strength | R598Q

From IntAct's records for PubMed 21224891
